Molecular target: the molecule itself
Assay: cryo-EM structure; single-particle cryoEM of the TOM core complex assembled in the fly retina, FLAG-purified as a whole and reconstituted into non-ionic amphipol; graphene-coated grids; C2 symmetry; 3.3 Å

B1: Drosophila Tom40 subunit fused to a C-terminal FLAG-HA epitope tag (natural protein, D. melanogaster)
chain: AALENPGTVEELHKKCKDIQAITFEGAKIMLNKGLSNHFQVSHTINMSNVVPSGYRFGATYVGTKEFSPTEAFPVLLGDIDPAGNLNANVIHQFSARLRCKFASQIQESKVVASQLTTDYRGSDYTLSLTVANPSIFTNSGVVVGQYLQSVTPALALGSELAYQFGPNVPGRQIAIMSVVGRYTAGSSVWSGTLGQSGLHVCYYQKASDQLQIGAEVETSLRMQESVATLAYQIDLPKANLVFRGGIDSNWQIFGVLEKRLAPLPFTLALSGRMNHVKNNFRLGCGLMIG
notes: Tom40, translocation pore of the TOM complex, Drosophila melanogaster; transgene UAS-Tom40-FLAG.HA (Bloomington stock); residues 55-344 are modelled in the structure; two copies stand in the two-pore core complex; also called Tom40-FLAG-HA; Tom40_FLAG-HA; source: transgenic D. melanogaster retina (GMR-GAL4, UAS-Tom40-FLAG-HA, co-expressed with Myc); solubilised fly head membranes, purified on …
stoichiometry N: 2

Reference: publication PMC11707698, “Structure of an ex vivoDrosophila TOM complex determined by single-particle cryoEM” (IUCrJ, 2025)
